# According to patent publication US20050214798A1 (WISTAR INSTITUTE OF ANATOMY AND BIOLOGY, published 2005):
# T1: Bin2 (Bridging INtegrator-2) (human, UniProt Q9UBW5 1-565)
# T1 construct: In vitro translated in the presence of 35S-methionine from the full-length cDNA
# T1 sequence: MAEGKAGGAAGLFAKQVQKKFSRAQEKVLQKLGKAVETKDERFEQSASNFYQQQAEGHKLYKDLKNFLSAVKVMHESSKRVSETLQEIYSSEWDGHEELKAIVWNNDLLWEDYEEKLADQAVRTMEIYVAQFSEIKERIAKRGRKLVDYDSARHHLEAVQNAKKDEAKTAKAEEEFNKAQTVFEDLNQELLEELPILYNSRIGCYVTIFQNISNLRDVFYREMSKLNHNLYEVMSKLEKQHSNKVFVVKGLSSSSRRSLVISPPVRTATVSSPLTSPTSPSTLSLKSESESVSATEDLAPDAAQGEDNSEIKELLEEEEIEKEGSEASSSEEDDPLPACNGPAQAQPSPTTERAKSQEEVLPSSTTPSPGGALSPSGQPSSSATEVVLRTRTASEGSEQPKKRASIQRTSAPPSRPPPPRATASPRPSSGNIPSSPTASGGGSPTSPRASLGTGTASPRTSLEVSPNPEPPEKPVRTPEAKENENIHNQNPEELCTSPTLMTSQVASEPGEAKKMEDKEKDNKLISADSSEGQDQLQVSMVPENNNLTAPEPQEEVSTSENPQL
# Biological target: T1, Bin2 (Bridging INtegrator-2)
# Test: co-immunoprecipitation of in vitro translated proteins, deletion mutant
# From the text: Stable complexes have been reported in yeast between RVS161 and RVS167 and in brain between amphiphysin and brain-specific splice isoforms of Bin1 [Navarro et al., Biochim. Biophys. Acta, 1343: 187-192 (1997); Wigge et al., Mol. Biol. Cell 8: 2003-2015 (1997)]. Since Bin1 is expressed in hematopoietic cells, whether Bin2 and Bin1 could also form a stable biochemical complex was investigated. For coimmunoprecipitation experiments, Bin1 was in vitro translated in the presence or absence of Bin2 and complex formation was assessed by SDS-PAGE and fluorography after immunoprecipitation with the Bin1 monoclonal antibody 99D [Wechsler-Reya et al., Cancer Res. 57: 3258-3263 (1997)].
# Other deletion mutants of Bin1 lacking the so-called Unique central region, the Myc-binding domain, or the SH3 domain, interacted with Bin2 with the same efficiency as wild-type Bin1 (data not shown). It was concluded that Bin1 and Bin2 formed a BAR domain-dependent complex in cells.
binder,measurement,value
Bin1 deletion mutant Δ1-122 (other) LLTMDTYLGQFPDIKSRIAKRGRKLVDYDSARHHYESLQTAKKKDEAKIAKAEEELIKAQKVFEEMNVDLQEELPSLWNSRVGFYVNTFQSIAGLEENFHKEMSKLNQNLNDVLVGLEKQHGSNTFTVKA,binding result,no binding
